Molecular target: human Flag-tagged RAC2 T108A mutant (human), P15153
Assay: co-IP; Caki-1 cells transfected with Flag-tagged WT, S86A or T108A RAC2; interaction with NEDD4L quantified relative to WT
Conditions: remark: other sources report otherwise

interaction, percent of the WT level (% of the WT level): 20
B1: Neural precursor cell expressed developmentally down-regulated 4-like (NEDD4L), endogenous, Q96PU5-5 1-955 (enzyme)
chain: MATGLGEPVYGLSEDEGESRILRVKVVSGIDLAKKDIFGASDPYVKLSLYVADENRELALVQTKTIKKTLNPKWNEEFYFRVNPSNHRLLFEVFDENRLTRDDFLGQVDVPLSHLPTEDPTMERPYTFKDFLLRPRSHKSRVKGFLRLKMAYMPKNGGQDEENSDQRDDMEHGWEVVDSNDSASQHQEELPPPPLPPGWEEKVDNLGRTYYVNHNNRTTQWHRPSLMDVSSESDNNIRQINQEAAHRRFRSRRHISEDLEPEPSEGGDVPEPWETISEEVNIAGDSLGLALPPPPASPGSRTSPQELSEELSRRLQITPDSNGEQFSSLIQREPSSRLRSCSVTDAVAEQGHLPPPSVAYVHTTPGLPSGWEERKDAKGRTYYVNHNNRTTTWTRPIMQLAEDGASGSATNSNNHLIEPQIRRPRSLSSPTVTLSAPLEGAKDSPVRRAVKDTLSNPQSPQPSPYNSPKPQHKVTQSFLPPGWEMRIAPNGRPFFIDHNTKTTTWEDPRLKFPVHMRSKTSLNPNDLGPLPPGWEERIHLDGRTFYIDHNSKITQWEDPRLQNPAITGPAVPYSREFKQKYDYFRKKLKKPADIPNRFEMKLHRNNIFEESYRRIMSVKRPDVLKARLWIEFESEKGLDYGGVAREWFFLLSKEMFNPYYGLFEYSATDNYTLQINPNSGLCNEDHLSYFTFIGRVAGLAVFHGKLLDGFFIRPFYKMMLGKQITLNDMESVDSEYYNSLKWILENDPTELDLMFCIDEENFGQTYQVDLKPNGSEIMVTNENKREYIDLVIQWRFVNRVQKQMNAFLEGFTELLPIDLIKIFDENELELLMCGLGDVDVNDWRQHSIYKNGYCPNHPVIQWFWKAVLLMDAEKRIRLLQFVTGTSRVPMNGFAELYGSNGPQLFTIEQWGSPEKLPRAHTCFNRLDLPPYETFEDLREKLLMAVENAQGFEGVD
